Measurements published in the supplement of paper PMC11246515.
± gives the standard deviation of the averaged measurements.

Assay: total protein half-life in vivo (active degradation + dilution); higher = more stable protein
[1] = wild type E. coli NCM3722, growth: C-lim chemostat, doubling time 12 h
[2] = wild type E. coli NCM3722, growth: N-lim chemostat, doubling time 12 h
[3] = E. coli NCM3722 delta-clpP delta-lon delta-hslV, growth: N-lim chemostat, doubling time 6 h
[4] = E. coli NCM3722 delta-clpP, growth: N-lim chemostat, doubling time 6 h
[5] = E. coli NCM3722 delta-hslV, growth: N-lim chemostat, doubling time 6 h
[6] = E. coli NCM3722 delta-lon, growth: N-lim chemostat, doubling time 6 h
[7] = E. coli NCM3722 delta-smpB, growth: N-lim chemostat, doubling time 6 h
[8] = wild type E. coli NCM3722, growth: C-lim chemostat, doubling time 3 h
[9] = wild type E. coli NCM3722, growth: C-lim chemostat, doubling time 6 h
[10] = wild type E. coli NCM3722, growth: N-lim chemostat, doubling time 6 h
[11] = wild type E. coli NCM3722, growth: P-lim chemostat, doubling time 6 h
[12] = wild type E. coli NCM3722, growth: P-lim chemostat, doubling time 12 h

Sequence	total protein half-life in vivo [1]	total protein half-life in vivo [2]	total protein half-life in vivo [3]	total protein half-life in vivo [4]	total protein half-life in vivo [5]	total protein half-life in vivo [6]	total protein half-life in vivo [7]	total protein half-life in vivo [8]	total protein half-life in vivo [9]	total protein half-life in vivo [10]	total protein half-life in vivo [11]	total protein half-life in vivo [12]
MNNSRLFRLSRIVIALTAASGMMVNTANAKEEAKAATQYTQQVNQNYAKSLPFSDRQDFDDAQRGFIAPLLDEGILRDANGKVYYRADDYKFDINAAAPETVNPSLWRQSQINGISGLFKVTDKMYQVRGQDISNITFVEGEKGIIVIDPLVTPPAAKAALDLYFQHRPQKPIVAVIYTHSHTDHYGGVKGIISEADVKSGKVQVIAPAGFMDEAISENVLAGNIMSRRALYSYGLLLPHNAQGNVGNGLGVTLATGDPSIIAPTKTIVRTGEKMIIDGLEFDFLMTPGSEAPAEMHFYIPALKALCTAENATHTLHNFYTLRGAKTRDTSKWTEYLNETLDMWGNDAEVLFMPHTWPVWGNKHINDYIGKYRDTIKYIHDQTLHLANQGYTMNEIGDMIKLPPALANNWASRGYYGSVSHNARAVYNFYLGYYDGNPANLHPYGQVEMGKRYVQALGGSARVINLAQEANKQGDYRWSAELLKQVIAANPGDQVAKNLQANNFEQLGYQAESATWRGFYLTGAKELREGVHKFSHGTTGSPDTIRGMSVEMLFDFMAVRLDSAKAAGKNISLNFNMSNGDNLNLTLNDSVLNYRKTLQPQADASFYISREDLHAVLTGQAKMADLVKAKKAKIIGNGAKLEEIIACLDNFDLWVNIVTPN	11.5 h	11.3 h										
MNNTPRYPQRVRNDLRFRELTVLRVERISAGFQRIVLGGEALDGFTSRGFDDHSKLFFPQPDAHFVPPTVTEEGIVWPEGPRPPSRDYTPLYDELRHELAIDFFIHDGGVASGWAMQAQPGDKLTVAGPRGSLVVPEDYAYQLYVCDESGMPALRRRLETLSKLAVKPQVSALVSVRDNACQDYLAHLDGFNIEWLAHDEQAVDARLAQMQIPADDYFIWITGEGKVVKNLSRRFEAEQYDPQRVRAAAYWHAK	9.46 ± 0.69 h	7.07 h	4.98 ± 0.54 h	3.77 ± 0.45 h	4.7 ± 0.13 h	5.34 ± 0.58 h	4.11 ± 1.2 h	3.36 ± 0.12 h	6.21 ± 1.1 h	4.38 ± 0.69 h	5.663 ± 0.053 h	12.1 ± 0.45 h
MNPERSERIEIPVLPLRDVVVYPHMVIPLFVGREKSIRCLEAAMDHDKKIMLVAQKEASTDEPGVNDLFTVGTVASILQMLKLPDGTVKVLVEGLQRARISALSDNGEHFSAKAEYLESPTIDEREQEVLVRTAISQFEGYIKLNKKIPPEVLTSLNSIDDPARLADTIAAHMPLKLADKQSVLEMSDVNERLEYLMAMMESEIDLLQVEKRIRNRVKKQMEKSQREYYLNEQMKAIQKELGEMDDAPDENEALKRKIDAAKMPKEAKEKAEAELQKLKMMSPMSAEATVVRGYIDWMVQVPWNARSKVKKDLRQAQEILDTDHYGLERVKDRILEYLAVQSRVNKIKGPILCLVGPPGVGKTSLGQSIAKATGRKYVRMALGGVRDEAEIRGHRRTYIGSMPGKLIQKMAKVGVKNPLFLLDEIDKMSSDMRGDPASALLEVLDPEQNVAFSDHYLEVDYDLSDVMFVATSNSMNIPAPLLDRMEVIRLSGYTEDEKLNIAKRHLLPKQIERNALKKGELTVDDSAIIGIIRYYTREAGVRGLEREISKLCRKAVKQLLLDKSLKHIEINGDNLHDYLGVQRFDYGRADNENRVGQVTGLAWTEVGGDLLTIETACVPGKGKLTYTGSLGEVMQESIQAALTVVRARAEKLGINPDFYEKRDIHVHVPEGATPKDGPSAGIAMCTALVSCLTGNPVRADVAMTGEITLRGQVLPIGGLKEKLLAAHRGGIKTVLIPFENKRDLEEIPDNVIADLDIHPVKRIEEVLTLALQNEPSGMQVVTAK [P0A9M0]	11.2 ± 0.36 h	6.68 ± 0.68 h	3.09 h	6.54 ± 0.34 h	4.728 ± 0.026 h		4.49 ± 0.13 h	2.889 ± 0.0043 h	5.944 ± 0.036 h	4.74 ± 0.17 h	5.58 ± 0.2 h	10.7 ± 0.49 h
MNPIVINRLQRKLGYTFNHQELLQQALTHRSASSKHNERLEFLGDSILSYVIANALYHRFPRVDEGDMSRMRATLVRGNTLAELAREFELGECLRLGPGELKSGGFRRESILADTVEALIGGVFLDSDIQTVEKLILNWYQTRLDEISPGDKQKDPKTRLQEYLQGRHLPLPTYLVVQVRGEAHDQEFTIHCQVSGLSEPVVGTGSSRRKAEQAAAEQALKKLELE [P0A7Y0]	8.37 ± 0.68 h	7.78 ± 0.17 h	5.33 ± 0.47 h	4.64 ± 0.1 h	5.21 ± 0.87 h	5.08 ± 0.24 h	4.72 ± 0.15 h	2.85 ± 0.21 h	5.54 ± 0.24 h	4.85 ± 0.54 h	5.51 ± 0.21 h	11.4 ± 0.34 h
MNPVDRPLLDIGLTRLEFLRISGKGLAGLTIAPALLSLLGCKQEDIDSGTVGLINTPKGVLVTQRARCTGCHRCEISCTNFNDGSVGTFFSRIKIHRNYFFGDNGVGSGGGLYGDLNYTADTCRQCKEPQCMNVCPIGAITWQQKEGCITVDHKRCIGCSACTTACPWMMATVNTESKKSSKCVLCGECANACPTGALKIIEWKDITV [P0AAL6]	> 16 h											
